According to PMC3750979:

Tests used:
NHis-Purβ I-II-III [1] = target: T1, NHis-Purβ I-II-III (Mus musculus, UniProt O35295 41-303); experiment: ssDNA-binding ELISA
T1 sequence: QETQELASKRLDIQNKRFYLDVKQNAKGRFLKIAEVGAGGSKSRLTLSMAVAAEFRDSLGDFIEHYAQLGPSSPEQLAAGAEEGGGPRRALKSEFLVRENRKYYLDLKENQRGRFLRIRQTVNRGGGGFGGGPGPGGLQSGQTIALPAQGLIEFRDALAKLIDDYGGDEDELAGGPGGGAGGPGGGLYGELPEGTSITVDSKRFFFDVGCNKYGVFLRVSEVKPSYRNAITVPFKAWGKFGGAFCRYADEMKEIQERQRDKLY

NHis-Purβ III = target: T2, NHis-Purβ III (Mus musculus, UniProt O35295 209-303); experiment: ssDNA-binding ELISA
T2 sequence: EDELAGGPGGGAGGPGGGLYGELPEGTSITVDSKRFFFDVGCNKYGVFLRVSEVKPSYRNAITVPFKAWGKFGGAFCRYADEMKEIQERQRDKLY

NHis-Purβ (full-length) [2] = target: T3, NHis-Purβ (full-length) (Mus musculus, UniProt O35295 1-324); experiment: ssDNA-binding ELISA
T3 sequence: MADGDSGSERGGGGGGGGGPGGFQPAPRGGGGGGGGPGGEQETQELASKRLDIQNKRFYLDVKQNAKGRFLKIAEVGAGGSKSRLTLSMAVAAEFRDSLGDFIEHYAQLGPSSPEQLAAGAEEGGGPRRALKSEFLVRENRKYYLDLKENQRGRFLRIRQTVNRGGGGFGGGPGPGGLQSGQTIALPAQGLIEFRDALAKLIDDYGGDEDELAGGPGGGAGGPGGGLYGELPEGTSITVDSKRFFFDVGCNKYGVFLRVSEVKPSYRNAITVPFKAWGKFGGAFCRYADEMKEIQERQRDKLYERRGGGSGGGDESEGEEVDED

NHis-Purβ I-II-III [3] = target: T1, NHis-Purβ I-II-III; experiment: competition
NHis-Purβ (full-length) [4] = target: T3, NHis-Purβ (full-length); experiment: competition

Binder: GGGAGCAGAACAGAGGAATGCAGTGGAAGAGA (ssDNA) [PE32-bF]
- apparent K (half saturation) (NHis-Purβ I-II-III [1]): 0.22 ± 0.05 nM
- apparent K (half saturation) (NHis-Purβ III): 1.8 ± 0.74 nM
- apparent K (half saturation) (NHis-Purβ (full-length) [2]): 0.16 ± 0.05 nM
- IC50 (NHis-Purβ I-II-III [3]): 1 ± 0.3 nM
- IC50 (NHis-Purβ (full-length) [4]): 1.2 ± 0.2 nM
